Laboratory results reported in the Immune Epitope Database (IEDB).

Legend:
HLA-A*02:01 [1] = assay: IEDB peptide-MHC binding, purified MHC/competitive/radioactivity; ≥ and ≤ were set here for values at or beyond the usual limits of such assays; settings: source organism: Homo sapiens
HLA-B*73:01 [2] = assay: IEDB peptide-MHC binding, purified MHC/competitive/fluorescence; filed as Kd, often an IC50 or EC50 that approximates it; ≥ and ≤ were set here for values at or beyond the usual limits of such assays
HLA-B*15:42 = assay: as above
HLA-B*27:20 = assay: as above
HLA-B*45:06 = assay: as above
HLA-B*83:01 = assay: as above
HLA-A*01:01 = assay: IEDB peptide-MHC binding, purified MHC/direct/fluorescence; filed as Kd, often an IC50 or EC50 that approximates it; ≥ and ≤ were set here for values at or beyond the usual limits of such assays
HLA-A*02:01 [3] = assay: as above
HLA-A*03:01 = assay: as above
HLA-A*11:01 = assay: as above
HLA-A*26:01 = assay: as above
HLA-A*31:01 = assay: as above
HLA-A*68:02 = assay: as above; settings: source organism: Rickettsia prowazekii
HLA-A*69:01 = assay: as above
HLA-B*07:02 = assay: as above
HLA-B*08:02 = assay: as above; settings: source organism: Rickettsia typhi str. Wilmington
HLA-B*08:03 = assay: as above; settings: source organism: Rickettsia typhi str. Wilmington
HLA-B*15:01 = assay: as above
HLA-B*15:09 = assay: as above; settings: source organism: Rickettsia typhi str. Wilmington
HLA-B*18:01 = assay: as above; settings: source organism: Rickettsia prowazekii
HLA-B*27:05 = assay: as above
HLA-B*48:01 = assay: as above
HLA-B*57:01 = assay: as above; settings: source organism: Rickettsia prowazekii
HLA-B*58:01 = assay: as above
HLA-B*73:01 [4] = assay: as above
HLA-C*06:02 [5] = assay: as above
HLA-C*15:02 = assay: as above
HLA-A*30:01 = assay: IEDB peptide-MHC binding, purified MHC/competitive/fluorescence; filed as Kd, often an IC50 or EC50 that approximates it; ≥ and ≤ were set here for values at or beyond the usual limits of such assays; settings: source organism: Rickettsia prowazekii str. Madrid E
HLA-B*08:01 = assay: as above; settings: source organism: Rickettsia prowazekii str. Madrid E
HLA-B*15:17 = assay: as above; settings: source organism: Rickettsia prowazekii str. Madrid E
HLA-A*02:19 = assay: IEDB peptide-MHC binding, purified MHC/direct/fluorescence; filed as Kd, often an IC50 or EC50 that approximates it; ≥ and ≤ were set here for values at or beyond the usual limits of such assays; settings: source organism: Yersinia enterocolitica subsp. enterocolitica 8081
HLA-B*15:02 = assay: as above; settings: source organism: Yersinia enterocolitica subsp. enterocolitica 8081
HLA-B*35:01 = assay: as above; settings: source organism: Yersinia pestis
HLA-B*40:01 [6] = assay: as above; settings: source organism: Yersinia pestis Nepal516
HLA-B*44:02 = assay: as above; settings: source organism: Yersinia pestis Nepal516
HLA-B*46:01 = assay: as above; settings: source organism: Yersinia pestis Nepal516
HLA-B*39:01 = assay: IEDB peptide-MHC binding, purified MHC/competitive/fluorescence; filed as Kd, often an IC50 or EC50 that approximates it; ≥ and ≤ were set here for values at or beyond the usual limits of such assays; settings: source organism: Salmonella enterica subsp. enterica serovar Paratyphi B str. SPB7
HLA-B*40:01 [7] = assay: as above; settings: source organism: Salmonella enterica subsp. enterica serovar Paratyphi B str. SPB7
HLA-B*51:01 = assay: IEDB peptide-MHC binding, purified MHC/direct/fluorescence; filed as Kd, often an IC50 or EC50 that approximates it; ≥ and ≤ were set here for values at or beyond the usual limits of such assays; settings: source organism: Escherichia coli O157:H7
HLA-C*08:02 = assay: as above; settings: source organism: Escherichia coli HS
HLA-C*06:02 [8] = assay: IEDB peptide-MHC binding, purified MHC/competitive/fluorescence; filed as Kd, often an IC50 or EC50 that approximates it; ≥ and ≤ were set here for values at or beyond the usual limits of such assays; settings: source organism: Escherichia coli HS
HLA-C*14:02 = assay: as above; settings: source organism: Escherichia coli HS
[9] = source organism: human gammaherpesvirus 4
[10] = source organism: Rickettsia prowazekii
[11] = source organism: Rickettsia prowazekii str. Madrid E
[12] = source organism: Human herpesvirus 4 strain B95-8
[13] = source organism: Yersinia pestis Nepal516
[14] = source organism: Yersinia pestis
[15] = source organism: Salmonella enterica subsp. enterica serovar Paratyphi B str. SPB7
[16] = source organism: Escherichia coli HS
[17] = source organism: Brucella abortus 2308

How did the IC50 (HLA-A*02:01 [1]) turn out when ILTVILGVL was run?
The IC50 was 0.381 µM.

With KEWCGNLIV as the sequence, how does the Kd (HLA-B*73:01 [2]; source organism: Entamoeba histolytica) read?
Its Kd is ≥ 20 µM.

What does the source list for RRLHRLLLM?
Kd (HLA-B*15:42; [9]): ≥ 5 µM; Kd (HLA-B*27:20; [9]): ≤ 0.0001 µM; Kd (HLA-B*45:06; [9]): ≥ 5 µM; Kd (HLA-B*83:01; [9]): ≥ 5 µM

How did the Kd (HLA-A*01:01; [10]) turn out when RRNRKALWL was run?
The Kd was ≥ 20 µM.

And the Kd (HLA-A*02:01 [3]; [10])?
The Kd was ≥ 20 µM.

And the Kd (HLA-A*03:01; [10])?
Its Kd is ≥ 20 µM.

What about the Kd (HLA-A*11:01; [10]) of the same sequence?
Its Kd is ≥ 20 µM.

And the Kd (HLA-A*26:01; source organism: Rickettsia typhi str. Wilmington)?
Its Kd is ≥ 20 µM.

And the Kd (HLA-A*31:01; [10])?
Its Kd is ≥ 20 µM.

And the Kd (HLA-A*68:02)?
The Kd was ≥ 20 µM.

What about the Kd (HLA-A*69:01; [10]) of the same sequence?
Its Kd is ≥ 20 µM.

What about the Kd (HLA-B*07:02; [10]) of the same sequence?
The Kd was 6.89 µM.

And the Kd (HLA-B*08:02)?
Its Kd is ≥ 20 µM.

What about the Kd (HLA-B*08:03) of the same sequence?
The Kd was ≥ 20 µM.

And the Kd (HLA-B*15:01; [10])?
The Kd was ≥ 20 µM.

And the Kd (HLA-B*15:09)?
The Kd was ≥ 20 µM.

And the Kd (HLA-B*18:01)?
Its Kd is ≥ 20 µM.

What about the Kd (HLA-B*27:05; [10]) of the same sequence?
Its Kd is 0.0465 µM.

And the Kd (HLA-B*48:01; [10])?
Its Kd is ≥ 20 µM.

What about the Kd (HLA-B*57:01) of the same sequence?
Its Kd is ≥ 20 µM.

What about the Kd (HLA-B*58:01; [10]) of the same sequence?
The Kd was ≥ 20 µM.

And the Kd (HLA-B*73:01 [4]; [10])?
Its Kd is 3.37 µM.

What about the Kd (HLA-C*06:02 [5]; [11]) of the same sequence?
Its Kd is 0.031 µM.

And the Kd (HLA-C*15:02; [11])?
Its Kd is ≥ 20 µM.

And the Kd (HLA-A*30:01)?
Its Kd is ≥ 20 µM.

And the Kd (HLA-B*08:01)?
Its Kd is 3 µM.

And the Kd (HLA-B*15:17)?
Its Kd is ≥ 20 µM.

What does the source list for RRRRRRAAL?
Kd (HLA-B*15:42; [12]): ≥ 5 µM; Kd (HLA-B*27:20; [12]): ≤ 0.001 µM; Kd (HLA-B*45:06; [12]): ≥ 5 µM; Kd (HLA-B*83:01; [12]): ≥ 5 µM

Which Kd (HLA-C*06:02 [5]; source organism: Escherichia coli O157:H7 str. EDL933) does the source give for TRYYWDIHL here?
The Kd was 0.051 µM.

Which results are given for WLWVSSSDM?
Kd (HLA-A*01:01; [13]): ≥ 20 µM; Kd (HLA-A*02:01 [3]; [14]): 1 µM; Kd (HLA-A*02:19): 0.012 µM; Kd (HLA-A*03:01; [13]): ≥ 20 µM; Kd (HLA-A*11:01; [13]): ≥ 20 µM; Kd (HLA-A*26:01; [13]): ≥ 20 µM; Kd (HLA-A*31:01; [13]): ≥ 20 µM; Kd (HLA-A*69:01; [14]): 0.114 µM; Kd (HLA-B*07:02; [14]): ≥ 5 µM; Kd (HLA-B*15:01; [14]): 1.37 µM; Kd (HLA-B*15:02): 0.003 µM; Kd (HLA-B*27:05; [14]): ≥ 5 µM; Kd (HLA-B*35:01): 0.0224 µM; Kd (HLA-B*40:01 [6]): ≥ 20 µM; Kd (HLA-B*44:02): ≥ 20 µM; Kd (HLA-B*46:01): ≥ 20 µM; Kd (HLA-B*58:01; [13]): ≥ 20 µM

How did the Kd (HLA-B*15:42; [15]) turn out when YESSHWLVV was run?
The Kd was ≥ 5 µM.

And the Kd (HLA-B*27:20; [15])?
The Kd was 0.113 µM.

And the Kd (HLA-B*39:01)?
The Kd was 0.0372 µM.

And the Kd (HLA-B*40:01 [7])?
Its Kd is 0.005 µM.

What about the Kd (HLA-B*45:06; [15]) of the same sequence?
Its Kd is ≥ 5 µM.

What about the Kd (HLA-B*83:01; [15]) of the same sequence?
Its Kd is ≥ 5 µM.

What does the source list for YLREHIRAM?
Kd (HLA-B*07:02; source organism: Escherichia coli O157:H7): 0.006 µM; Kd (HLA-B*51:01): ≥ 20 µM; Kd (HLA-C*08:02): ≥ 20 µM; Kd (HLA-C*15:02; [16]): ≥ 20 µM; Kd (HLA-B*15:42; [16]): ≥ 5 µM; Kd (HLA-B*45:06; [16]): ≥ 5 µM; Kd (HLA-B*83:01; [16]): ≥ 5 µM; Kd (HLA-C*06:02 [8]): 0.0684 µM; Kd (HLA-C*14:02): 0.0018 µM

For YRGGGQQHV, which Kd (HLA-B*73:01 [2]; source organism: Brucella abortus S19) is on record?
Its Kd is 3 µM.

For YRSGVPVEK, which Kd (HLA-B*27:05; [17]) is on record?
Its Kd is 0.0619 µM.

And the Kd (HLA-B*48:01; [17])?
Its Kd is ≥ 20 µM.

What about the Kd (HLA-B*73:01 [4]; source organism: Brucella suis 1330) of the same sequence?
Its Kd is ≥ 20 µM.
